B1: CD151 antigen (Homo sapiens), P48509 (parent)
chain: MGEFNEKKTTCGTVCLKYLLFTYNCCFWLAGLAVMAVGIWTLALKSDYISLLASGTYLATAYILVVAGTVVMVTGVLGCCATFKERRNLLRLYFILLLIIFLLEIIAGILAYAYYQQLNTELKENLKDTMTKRYHQPGHEAVTSAVDQLQQEFHCCGSNNSQDWRDSEWIRSQEAGGRVVPDSCCKTVVALCGQRDHASNIYKVEGGCITKLETFIQEHLRVIGAVGIGIACVQVFGMIFTCCLYRSLKLEHY
B2: Syntaxin-3 (Homo sapiens), Q13277 (parent)
chain: MKDRLEQLKAKQLTQDDDTDAVEIAIDNTAFMDEFFSEIEETRLNIDKISEHVEEAKKLYSIILSAPIPEPKTKDDLEQLTTEIKKRANNVRNKLKSMEKHIEEDEVRSSADLRIRKSQHSVLSRKFVEVMTKYNEAQVDFRERSKGRIQRQLEITGKKTTDEELEEMLESGNPAIFTSGIIDSQISKQALSEIEGRHKDIVRLESSIKELHDMFMDIAMLVENQGEMLDNIELNVMHTVDHVEKARDETKKAVKYQSQARKKLIIIIVLVVVLLGILALIIGLSVGLN
B3: Myotubularin-related protein 9 (Homo sapiens), Q96QG7 (parent)
chain: MEFAELIKTPRVDNVVLHRPFYPAVEGTLCLTGHHLILSSRQDNTEELWLLHSNIDAIDKRFVGSLGTIIIKCKDFRIIQLDIPGMEECLNIASSIEALSTLDSITLMYPFFYRPMFEVIEDGWHSFLPEQEFELYSSATSEWRLSYVNKEFAVCPSYPPIVTVPKSIDDEALRKVATFRHGGRFPVLSYYHKKNGMVIMRSGQPLTGTNGRRCKEDEKLINATLRAGKRGYIIDTRSLNVAQQTRAKGGGFEQEAHYPQWRRIHKSIERYHILQESLIKLVEACNDQTHNMDRWLSKLEASNWLTHIKEILTTACLAAQCIDREGASILIHGTEGTDSTLQVTSLAQIILEPRSRTIRGFEALIEREWLQAGHPFQQRCAQSAYCNTKQKWEAPVFLLFLDCVWQILRQFPCSFEFNENFLIMLFEHAYASQFGTFLGNNESERCKLKLQQKTMSLWSWVNQPSELSKFTNPLFEANNLVIWPSVAPQSLPLWEGIFLRWNRSSKYLDEAYEEMVNIIEYNKELQAKVNILRRQLAELETEDGMQESP
partner: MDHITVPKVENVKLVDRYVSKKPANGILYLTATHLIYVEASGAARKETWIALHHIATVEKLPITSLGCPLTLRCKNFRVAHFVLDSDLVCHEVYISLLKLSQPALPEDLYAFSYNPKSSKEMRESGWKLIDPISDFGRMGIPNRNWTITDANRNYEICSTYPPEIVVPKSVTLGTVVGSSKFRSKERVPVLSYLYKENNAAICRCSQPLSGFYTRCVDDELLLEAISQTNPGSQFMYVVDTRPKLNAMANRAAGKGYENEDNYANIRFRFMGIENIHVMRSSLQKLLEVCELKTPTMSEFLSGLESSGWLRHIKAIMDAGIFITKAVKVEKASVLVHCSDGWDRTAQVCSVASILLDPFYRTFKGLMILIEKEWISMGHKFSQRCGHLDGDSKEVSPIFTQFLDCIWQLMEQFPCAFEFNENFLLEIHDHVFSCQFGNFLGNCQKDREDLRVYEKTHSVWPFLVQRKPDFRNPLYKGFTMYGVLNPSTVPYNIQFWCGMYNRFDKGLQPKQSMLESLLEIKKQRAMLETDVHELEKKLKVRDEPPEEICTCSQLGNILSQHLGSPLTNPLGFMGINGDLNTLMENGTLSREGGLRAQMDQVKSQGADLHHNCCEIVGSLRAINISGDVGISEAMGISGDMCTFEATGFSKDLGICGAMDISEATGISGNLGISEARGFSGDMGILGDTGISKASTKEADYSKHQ
B4: Ligand of Numb protein X 2 (Homo sapiens), Q8N448 (parent)
chain: MGTTSDEMVSVEQTSSSSLNPLCFECGQQHWTRENHLYNYQNEVDDDLVCHICLQPLLQPLDTPCGHTFCYKCLRNFLQEKDFCPLDRKRLHFKLCKKSSILVHKLLDKLLVLCPFSSVCKDVMQRCDLEAHLKNRCPGASHRRVALERRKTSRTQAEIENENGPTLLDPAGTLSPEADCLGTGAVPVERHLTSASLSTWSEEPGLDNPAFEESAGADTTQQPLSLPEGEITTIEIHRSNPYIQLGISIVGGNETPLINIVIQEVYRDGVIARDGRLLAGDQILQVNNYNISNVSHNYARAVLSQPCNTLHLTVLRERRFGNRAHNHSDSNSPREEIFQVALHKRDSGEQLGIKLVRRTDEPGVFILDLLEGGLAAQDGRLSSNDRVLAINGHDLKYGTPELAAQIIQASGERVNLTIARPGKPQPGNTIREAGNHSSSSQHHTPPPYYSRPSSHKDLTQCVTCQEKHITVKKEPHESLGMTVAGGRGSKSGELPIFVTSVPPHGCLARDGRIKRGDVLLNINGIDLTNLSHSEAVAMLKASAASPAVALKALEVQIVEEATQNAEEQPSTFSENEYDASWSPSWVMWLGLPSTLHSCHDIVLRRSYLGSWGFSIVGGYEENHTNQPFFIKTIVLGTPAYYDGRLKCGDMIVAVNGLSTVGMSHSALVPMLKEQRNKVTLTVICWPGSLV
partner: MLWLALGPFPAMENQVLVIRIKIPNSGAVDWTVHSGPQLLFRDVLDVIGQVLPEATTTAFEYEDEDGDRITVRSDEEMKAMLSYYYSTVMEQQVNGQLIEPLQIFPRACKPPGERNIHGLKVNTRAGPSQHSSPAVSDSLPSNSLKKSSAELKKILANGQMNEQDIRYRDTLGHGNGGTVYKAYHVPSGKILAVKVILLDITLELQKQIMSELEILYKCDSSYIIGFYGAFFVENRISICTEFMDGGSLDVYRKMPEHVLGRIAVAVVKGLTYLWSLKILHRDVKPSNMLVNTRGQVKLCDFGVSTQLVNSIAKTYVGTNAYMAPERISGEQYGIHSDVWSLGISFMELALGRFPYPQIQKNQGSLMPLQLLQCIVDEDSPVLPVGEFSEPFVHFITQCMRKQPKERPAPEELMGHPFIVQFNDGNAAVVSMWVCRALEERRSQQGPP
B5: Heterogeneous nuclear ribonucleoprotein F (Homo sapiens), P52597 (parent)
chain: MMLGPEGGEGFVVKLRGLPWSCSVEDVQNFLSDCTIHDGAAGVHFIYTREGRQSGEAFVELGSEDDVKMALKKDRESMGHRYIEVFKSHRTEMDWVLKHSGPNSADSANDGFVRLRGLPFGCTKEEIVQFFSGLEIVPNGITLPVDPEGKITGEAFVQFASQELAEKALGKHKERIGHRYIEVFKSSQEEVRSYSDPPLKFMSVQRPGPYDRPGTARRYIGIVKQAGLERMRPGAYSTGYGGYEEYSGLSDGYGFTTDLFGRDLSYCLSGMYDHRYGDSEFTVQSTTGHCVHMRGLPYKATENDIYNFFSPLNPVRVHIEIGPDGRVTGEADVEFATHEEAVAAMSKDRANMQHRYIELFLNSTTGASNGAYSSQVMQGMGVSAAQATYSGLESQSVSGCYGAGYSGQNSMGGYD

Variants of: B1
Conditions: with astrc_human GRAMD1C

Row | effect of a mutation on the interaction | Variant
1 | with no effect | S158T

Variants of: B1
Conditions: with astrc_human GRAMD1C
Remark: another data set of the same source

Row | effect of a mutation on the interaction | Variant
2 | with no effect | A67V

Variants of: B2
Conditions: with stx4_human STX4, Q12846
Sequence of stx4_human STX4, Q12846 (Q12846 whole entry): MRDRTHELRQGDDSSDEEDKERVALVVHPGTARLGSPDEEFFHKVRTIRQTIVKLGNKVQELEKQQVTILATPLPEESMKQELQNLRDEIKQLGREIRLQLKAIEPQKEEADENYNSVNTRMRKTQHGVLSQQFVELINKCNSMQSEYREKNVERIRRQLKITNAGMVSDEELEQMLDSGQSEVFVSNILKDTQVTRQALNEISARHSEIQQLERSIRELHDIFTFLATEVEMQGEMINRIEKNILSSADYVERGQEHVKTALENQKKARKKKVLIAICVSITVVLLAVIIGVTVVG

Row | effect of a mutation on the interaction | Variant
3 | with no effect | K199E

Variants of: B3
Conditions: with mtmr8_human MTMR8, Q96EF0

Row | effect of a mutation on the interaction | Variant
4 | with no effect | R359S

Variants of: B4
Conditions: with mp2k5_human MAP2K5, Q13163

Row | effect of a mutation on the interaction | Variant
5 | with no effect | P669A

Variants of: B5
Conditions: with hnrl1_human HNRNPUL1, Q9BUJ2
Sequence of hnrl1_human HNRNPUL1, Q9BUJ2 (Q9BUJ2 whole entry): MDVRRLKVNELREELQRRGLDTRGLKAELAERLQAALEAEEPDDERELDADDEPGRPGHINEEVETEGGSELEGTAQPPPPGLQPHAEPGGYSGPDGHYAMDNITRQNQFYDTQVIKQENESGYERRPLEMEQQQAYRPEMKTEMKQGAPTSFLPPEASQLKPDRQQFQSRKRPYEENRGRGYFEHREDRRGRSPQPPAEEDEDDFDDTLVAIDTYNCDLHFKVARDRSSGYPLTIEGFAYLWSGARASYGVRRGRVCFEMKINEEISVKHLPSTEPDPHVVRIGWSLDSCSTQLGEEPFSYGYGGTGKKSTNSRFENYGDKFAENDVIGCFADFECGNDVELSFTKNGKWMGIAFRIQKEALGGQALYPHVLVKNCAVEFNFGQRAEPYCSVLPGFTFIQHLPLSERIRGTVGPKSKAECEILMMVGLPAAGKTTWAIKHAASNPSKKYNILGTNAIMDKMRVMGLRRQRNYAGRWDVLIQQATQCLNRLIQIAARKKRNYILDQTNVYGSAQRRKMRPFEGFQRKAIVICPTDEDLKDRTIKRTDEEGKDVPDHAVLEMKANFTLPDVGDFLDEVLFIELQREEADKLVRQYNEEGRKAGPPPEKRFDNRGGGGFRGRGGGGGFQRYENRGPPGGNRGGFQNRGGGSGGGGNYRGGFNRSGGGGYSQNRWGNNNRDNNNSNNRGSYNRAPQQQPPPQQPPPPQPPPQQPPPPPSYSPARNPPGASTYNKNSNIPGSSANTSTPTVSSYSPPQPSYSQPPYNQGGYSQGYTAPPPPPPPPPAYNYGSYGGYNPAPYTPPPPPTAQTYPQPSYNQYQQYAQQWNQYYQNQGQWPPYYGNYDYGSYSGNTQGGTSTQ

Row | effect of a mutation on the interaction | Variant
6 | with no effect | T48A
